According to patent publication US20120101037A1 (Hoffmann-La Roche, published 2012):
Non-standard residues stand in square brackets, D forms with d. Groups on a side chain read outwards from the residue. Primed or numbered codes have the meaning given here. *: point of attachment. dPhe(3,5-F2) = N[C@H](Cc1cc(F)cc(F)c1)C(=O)O; dPhe(3-Cl) = N[C@H](Cc1cccc(Cl)c1)C(=O)O; dPhe(4-Cl) = N[C@H](Cc1ccc(Cl)cc1)C(=O)O; dPhe(2-Cl) = N[C@H](Cc1ccccc1Cl)C(=O)O; dPhe(3-F) = N[C@H](Cc1cccc(F)c1)C(=O)O; Desaminotyrosyl = O=C(CCc1ccc(O)cc1)*; dPhe(2-F) = N[C@H](Cc1ccccc1F)C(=O)O; dPhe(3,4,5-F3)′ = not defined here; Hydrocinnamoyl = O=C(CCc1ccccc1)*; SSA = succinimidyl succinamide

T1: human GIPR (glucose-dependent insulinotropic polypeptide receptor) (human, UniProt P48546 22-466)
T1 sequence (looked up): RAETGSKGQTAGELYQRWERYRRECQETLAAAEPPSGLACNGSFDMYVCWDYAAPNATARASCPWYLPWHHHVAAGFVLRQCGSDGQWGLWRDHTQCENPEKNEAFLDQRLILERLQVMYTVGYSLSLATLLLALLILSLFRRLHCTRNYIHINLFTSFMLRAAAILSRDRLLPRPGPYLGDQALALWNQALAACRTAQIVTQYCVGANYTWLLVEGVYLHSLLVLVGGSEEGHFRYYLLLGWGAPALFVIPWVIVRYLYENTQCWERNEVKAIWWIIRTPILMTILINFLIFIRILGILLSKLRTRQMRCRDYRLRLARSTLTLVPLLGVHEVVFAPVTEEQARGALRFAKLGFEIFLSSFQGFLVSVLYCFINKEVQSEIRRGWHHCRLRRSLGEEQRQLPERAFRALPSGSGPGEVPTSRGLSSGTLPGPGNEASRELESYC

B1: Ac-(D)-3-Pya-Ala-Glu-Gly-Thr-Phe-Ile-Ser-Asp-Tyr-Ser-Ile-Ala-Met-Asp-Lys-Ile-His-Gln-Gln-Asp-Phe-Val-Asn-Trp-Leu-Leu-Ala-Gln-Lys-NH2 (peptide)
peptide: AAEGTFISDYSIAMDKIHQQDFVNWLLAQK
modifications: position 1 is acetylated D-3-pyridylalanine (Ac-(D)3Pya); C-terminal amide (NH2)

Molecular target: T1, human GIPR (glucose-dependent …)
Assay: cell-based or functional assay

In order of rising “% activation of cAMP” value:
1. Ac-[dPhe(3-F)]AEGTFISDYSIAMDKIHQQDFVNWLLAQK-NH2 (also: 1:2 TFA salt)  98%
2. Ac-[dPhe(3,5-F2)]AEGTFISDYSIAMDKIHQQDFVNWLLAQK-NH2 (also: 1:2 TFA salt)  99.6%
3. Ac-[dPhe(2-F)]AEGTFISDYSIAMDKIHQQDFVNWLLAQK-NH2 (also: 1:2 TFA salt)  99.8%
4. Ac-[dY]AEGTFISDYSIAMDAIHQQDFVNWLLAQK([SSA-PEGm 12,000])-NH2  100%
5. Ac-[dY]AEGTFISDYSIAMDAIHQQDFVNWLLAQK-NH2 (also: 1:1 TFA salt)  100%
6. Ac-[dPhe(3,4,5-F3)′]AEGTFISDYSIAMDKIHQQDFVNWLLAQK-NH2 (also: 1:2 TFA salt)  100%
7. Ac-YAEGTFISDYSIAMDKIHQQDFVNWLLAQK-NH2 (also: 1:2 TFA salt)  100%
8. [Hydrocinnamoyl]AEGTFISDYSIAMDKIHQQDFVNWLLAQK-NH2 (also: 1:2 TFA salt)  101%
9. Ac-[dY]AEGTFISDYSIAMDAIHQQDFVNWLLAQK([SSA-PEGm 30,000])-NH2  101%
10. Ac-[dF]AEGTFISDYSIAMDKIHQQDFVNWLLAQK-NH2 (also: 1:2 TFA salt)  102%
11. B1  102%
12. Ac-[dW]AEGTFISDYSIAMDKIHQQDFVNWLLAQK-NH2 (also: 1:2 TFA salt)  102%
13. Ac-[dY]AEGTFISDYSIAMDKIHQQDFVNWLLAQK-NH2 (also: 1:2 TFA salt)  102%
14. Ac-[dY]AEGTFISDYSIAMDAIHQQDFVNWLLAQK([SSA-PEGm 20,000])-NH2  102%
15. [Desaminotyrosyl]AEGTFISDYSIAMDKIHQQDFVNWLLAQK-NH2 (also: 1:2 TFA salt)  103%
16. Ac-[dPhe(2-Cl)]AEGTFISDYSIAMDKIHQQDFVNWLLAQK-NH2 (also: 1:2 TFA salt)  104%
17. Ac-[dPhe(3-Cl)]AEGTFISDYSIAMDKIHQQDFVNWLLAQK-NH2 (also: 1:2 TFA salt)  106%
18. Ac-[dPhe(4-Cl)]AEGTFISDYSIAMDKIHQQDFVNWLLAQK-NH2 (also: 1:2 TFA salt)  106%

In order of rising “EC50 (nMol), cAMP” value:
1. Ac-[dY]AEGTFISDYSIAMDAIHQQDFVNWLLAQK-NH2 (also: 1:1 TFA salt)  0.0005 nmol
2. Ac-[dY]AEGTFISDYSIAMDKIHQQDFVNWLLAQK-NH2 (also: 1:2 TFA salt)  0.0007 nmol
3. Ac-[dY]AEGTFISDYSIAMDAIHQQDFVNWLLAQK([SSA-PEGm 30,000])-NH2  0.0017 nmol
4. Ac-[dY]AEGTFISDYSIAMDAIHQQDFVNWLLAQK([SSA-PEGm 12,000])-NH2  0.0022 nmol
5. Ac-[dPhe(3,5-F2)]AEGTFISDYSIAMDKIHQQDFVNWLLAQK-NH2 (also: 1:2 TFA salt)  0.003 nmol
6. Ac-[dY]AEGTFISDYSIAMDAIHQQDFVNWLLAQK([SSA-PEGm 20,000])-NH2  0.0049 nmol
7. Ac-[dPhe(2-F)]AEGTFISDYSIAMDKIHQQDFVNWLLAQK-NH2 (also: 1:2 TFA salt)  0.0075 nmol
8. Ac-[dPhe(4-Cl)]AEGTFISDYSIAMDKIHQQDFVNWLLAQK-NH2 (also: 1:2 TFA salt)  0.025 nmol
9. Ac-[dPhe(3-F)]AEGTFISDYSIAMDKIHQQDFVNWLLAQK-NH2 (also: 1:2 TFA salt)  0.058 nmol
10. Ac-[dPhe(3-Cl)]AEGTFISDYSIAMDKIHQQDFVNWLLAQK-NH2 (also: 1:2 TFA salt)  0.072 nmol
11. B1  0.08 nmol
12. [Desaminotyrosyl]AEGTFISDYSIAMDKIHQQDFVNWLLAQK-NH2 (also: 1:2 TFA salt)  0.095 nmol
13. Ac-[dW]AEGTFISDYSIAMDKIHQQDFVNWLLAQK-NH2 (also: 1:2 TFA salt)  0.1 nmol
14. Ac-[dPhe(3,4,5-F3)′]AEGTFISDYSIAMDKIHQQDFVNWLLAQK-NH2 (also: 1:2 TFA salt)  0.104 nmol
15. Ac-[dPhe(2-Cl)]AEGTFISDYSIAMDKIHQQDFVNWLLAQK-NH2 (also: 1:2 TFA salt)  0.121 nmol
16. Ac-[dF]AEGTFISDYSIAMDKIHQQDFVNWLLAQK-NH2 (also: 1:2 TFA salt)  0.685 nmol
17. [Hydrocinnamoyl]AEGTFISDYSIAMDKIHQQDFVNWLLAQK-NH2 (also: 1:2 TFA salt)  0.797 nmol
